Ends that are not written are not given here.
B1: ASCC3^1-197 (domain or fragment, human, UniProt Q8N3C0 1-197, looked up)
chain: MALPRLTGALRSFSNVTKQDNYNEEVADLKIKRSKLHEQVLDLGLTWKKIIKFLNEKLEKSKMQSINEDLKDILHAAKQIVGTDNGREAIESGAAFLFMTFHLKDSVGHKETKAIKQMFGPFPSSSATAACNATNRIISHFSQDDLTALVQMTEKEHGDRVFFGKNLAFSFDMHDLDHFDELPINGETQKTISLDYK
notes: source: E. coli BL21 (DE3), purified (Ni-NTA, SEC); not shown: His6, N-terminal, cleaved
B2: ASCC3^16-197 (domain or fragment, human, UniProt Q8N3C0 16-197, looked up)
chain: VTKQDNYNEEVADLKIKRSKLHEQVLDLGLTWKKIIKFLNEKLEKSKMQSINEDLKDILHAAKQIVGTDNGREAIESGAAFLFMTFHLKDSVGHKETKAIKQMFGPFPSSSATAACNATNRIISHFSQDDLTALVQMTEKEHGDRVFFGKNLAFSFDMHDLDHFDELPINGETQKTISLDYK
notes: also called partial N-arm deletion variant; source: E. coli BL21 (DE3), purified (Ni-NTA, SEC); not shown: His6, N-terminal, cleaved
B3: ASCC2^1-434 (domain or fragment, human, UniProt Q9H1I8 1-434, looked up)
chain: MPALPLDQLQITHKDPKTGKLRTSPALHPEQKADRYFVLYKPPPKDNIPALVEEYLERATFVANDLDWLLALPHDKFWCQVIFDETLQKCLDSYLRYVPRKFDEGVASAPEVVDMQKRLHRSVFLTFLRMSTHKESKDHFISPSAFGEILYNNFLFDIPKILDLCVLFGKGNSPLLQKMIGNIFTQQPSYYSDLDETLPTILQVFSNILQHCGLQGDGANTTPQKLEERGRLTPSDMPLLELKDIVLYLCDTCTTLWAFLDIFPLACQTFQKHDFCYRLASFYEAAIPEMESAIKKRRLEDSKLLGDLWQRLSHSRKKLMEIFHIILNQICLLPILESSCDNIQGFIEEFLQIFSSLLQEKRFLRDYDALFPVAEDISLLQQASSVLDETRTAYILQAVESAWEGVDRRKATDAKDPSVIEEPNGEPNGVTVTA
notes: as for B1
B4: ASCC3^1-161 (domain or fragment, human, UniProt Q8N3C0 1-161, looked up)
chain: MALPRLTGALRSFSNVTKQDNYNEEVADLKIKRSKLHEQVLDLGLTWKKIIKFLNEKLEKSKMQSINEDLKDILHAAKQIVGTDNGREAIESGAAFLFMTFHLKDSVGHKETKAIKQMFGPFPSSSATAACNATNRIISHFSQDDLTALVQMTEKEHGDRV
notes: ASCC3, human, residues 1-161 (lacks the C-arm); source: E. coli BL21 (DE3), purified (Ni-NTA, SEC); not shown: His6, N-terminal, cleaved
B5: ASCC3^1-207, elastase fragment of ASCC3^NTR (domain or fragment, human, UniProt Q8N3C0 1-207, looked up)
chain: MALPRLTGALRSFSNVTKQDNYNEEVADLKIKRSKLHEQVLDLGLTWKKIIKFLNEKLEKSKMQSINEDLKDILHAAKQIVGTDNGREAIESGAAFLFMTFHLKDSVGHKETKAIKQMFGPFPSSSATAACNATNRIISHFSQDDLTALVQMTEKEHGDRVFFGKNLAFSFDMHDLDHFDELPINGETQKTISLDYKKFLNEHLQEA
notes: ASCC3, human, N-terminal 207 residues, mapped by mass spectrometric fingerprinting; Proteolytic fragment; also called N-terminal, 207-residue fragment of ASCC3; source: elastase digestion of the purified ASCC2^FL-ASCC3^NTR complex (proteins from insect cells); not shown: His10, N-terminal, cleaved
B6: ASCC3^1-207 (domain or fragment, human, UniProt Q8N3C0 1-207, looked up)
chain: B5 chain
notes: ASCC3, human, residues 1-207; residues 1-186 traced in the model; source: insect cells, recombinant, purified (Ni-NTA, SEC); not shown: His10, N-terminal, cleaved
B7: ASCC3 N-terminal region (ASCC3^NTR; residues 1-400) (domain or fragment, human, UniProt Q8N3C0 1-400, looked up)
chain: MALPRLTGALRSFSNVTKQDNYNEEVADLKIKRSKLHEQVLDLGLTWKKIIKFLNEKLEKSKMQSINEDLKDILHAAKQIVGTDNGREAIESGAAFLFMTFHLKDSVGHKETKAIKQMFGPFPSSSATAACNATNRIISHFSQDDLTALVQMTEKEHGDRVFFGKNLAFSFDMHDLDHFDELPINGETQKTISLDYKKFLNEHLQEACTPELKPVEKTNGSFLWCEVEKYLNSTLKEMTEVPRVEDLCCTLYDMLASIKSGDELQDELFELLGPEGLELIEKLLQNRITIVDRFLNSSNDHRFQALQDNCKKILGENAKPNYGCQVTIQSEQEKQLMKQYRREEKRIARREKKAGEDLEVSEGLMCFDPKELRIQREQALLNARSVPILSRQRDADVEKI
notes: ASCC3, human, N-terminal region, residues 1-400; The results say insect cells; source: insect cells, recombinant, purified (Ni-NTA; SEC step omitted); not shown: His10, N-terminal, cleaved
B8: ASCC3^1-22 peptide, wild type (peptide, UniProt Q8N3C0 1-22, looked up)
peptide: MALPRLTGALRSFSNVTKQDNY-NH2
notes: ASCC3, human, N-terminal 22 residues; also called WT ASCC3^1-22; source: synthetic peptide (GL biochem)

Columns and labels:
ASCC2^1-434 [1] = molecular target: B3; test: ITC; iTC200; ASCC3 variant (10 µM) in the sample cell, ASCC2 variant (100 µM) in the syringe; 20 mM HEPES-NaOH, pH 7.5, 100 mM NaCl; 25 °C; stoichiometry fixed to 1; details: both partners purified
ASCC3^1-22 peptide R5C = molecular target: T1, ASCC3^1-22 peptide R5C (human, UniProt Q8N3C0 1-22, R5C, C-terminal amination); test: ITC; iTC200; ASCC3^1-22 peptide (10-15 µM) in the sample cell, ASCC2^1-434 (200 µM or 400 µM) in the syringe; 20 mM HEPES-NaOH, pH 7.5, 100 mM NaCl; 25 °C; stoichiometry fixed to 1; details: both partners purified
T1 construct: ASCC3, human, N-terminal 22 residues with the somatic cancer substitution R5C; source: synthetic peptide (GL biochem)
T1 peptide (looked up): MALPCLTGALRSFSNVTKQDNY

ASCC3^1-22 peptide R5G = molecular target: T2, ASCC3^1-22 peptide R5G (human, UniProt Q8N3C0 1-22, R5G, C-terminal amination); test: as above; details: both partners purified
T2 construct: ASCC3, human, N-terminal 22 residues with the somatic cancer substitution R5G; source: synthetic peptide (GL biochem)
T2 peptide (looked up): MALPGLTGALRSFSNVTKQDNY

ASCC3^1-22 peptide R5H = molecular target: T3, ASCC3^1-22 peptide R5H (human, UniProt Q8N3C0 1-22, R5H, C-terminal amination); test: as above; details: both partners purified
T3 construct: ASCC3, human, N-terminal 22 residues with the somatic cancer substitution R5H; source: synthetic peptide (GL biochem)
T3 peptide (looked up): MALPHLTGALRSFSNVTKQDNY

ASCC3^1-22 peptide R5L = molecular target: T4, ASCC3^1-22 peptide R5L (human, UniProt Q8N3C0 1-22, R5L, C-terminal amination); test: as above; details: both partners purified
T4 construct: ASCC3, human, N-terminal 22 residues with the somatic cancer substitution R5L; source: synthetic peptide (GL biochem)
T4 peptide (looked up): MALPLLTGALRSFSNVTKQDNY

ASCC2^1-434 [2] = molecular target: T5, ASCC2^1-434 (human, UniProt Q9H1I8 1-434); test: ITC
T5 chain: B3 chain

[3] = molecular target: T6, ASCC2^1-434, elastase fragment of ASCC2^FL (human, UniProt Q9H1I8 1-434); test: SEC; SEC of the fragments left after elastase digestion of the ASCC2^FL-ASCC3^NTR complex; details: both partners purified
T6 construct: Proteolytic fragment; also called approximately 50 kDa fragment of ASCC2; source: elastase digestion of the purified ASCC2^FL-ASCC3^NTR complex (proteins from insect cells); not shown: His10, N-terminal, cleaved
T6 sequence (looked up): B3 chain

[4] = molecular target: T7, Seleno-methionine (SeMet)-derivatized ASCC2^1-434 (human, UniProt Q9H1I8 1-434, seleno-methionine (SeMet) in place of methionine); test: crystal structure; SeMet SAD, 2.7 Å; complex reconstituted by SEC from SeMet ASCC2^1-434 (E. coli) and ASCC3^1-207 (insect cells); hanging drop, 4 °C, 0.1 M MES-NaOH, pH 6.5; details: both partners purified
T7 construct: Unmodified complex (co-produced in High Five cells) was crystallized too; the structure was solved by SAD with the SeMet complex; source: E. coli BL21 (DE3), PASM-5052 medium with SeMet, purified (Ni-NTA, SEC); not shown: His6, N-terminal, cleaved
T7 sequence (looked up): B3 chain

[5] = molecular target: T8, Full-length ASCC2 (ASCC2^FL) (human, UniProt Q9H1I8 1-757); test: ITC; iTC200; ASCC3 variant (10 µM) in the sample cell, ASCC2 variant (100 µM) in the syringe; 20 mM HEPES-NaOH, pH 7.5, 100 mM NaCl; 25 °C; stoichiometry fixed to 1; details: both partners purified
T8 construct: from a synthetic gene (GeneArt); TEV-cleavable tag; source: insect cells (High Five), recombinant, purified (Ni-NTA, SEC); not shown: His10, N-terminal, cleaved
T8 sequence (looked up): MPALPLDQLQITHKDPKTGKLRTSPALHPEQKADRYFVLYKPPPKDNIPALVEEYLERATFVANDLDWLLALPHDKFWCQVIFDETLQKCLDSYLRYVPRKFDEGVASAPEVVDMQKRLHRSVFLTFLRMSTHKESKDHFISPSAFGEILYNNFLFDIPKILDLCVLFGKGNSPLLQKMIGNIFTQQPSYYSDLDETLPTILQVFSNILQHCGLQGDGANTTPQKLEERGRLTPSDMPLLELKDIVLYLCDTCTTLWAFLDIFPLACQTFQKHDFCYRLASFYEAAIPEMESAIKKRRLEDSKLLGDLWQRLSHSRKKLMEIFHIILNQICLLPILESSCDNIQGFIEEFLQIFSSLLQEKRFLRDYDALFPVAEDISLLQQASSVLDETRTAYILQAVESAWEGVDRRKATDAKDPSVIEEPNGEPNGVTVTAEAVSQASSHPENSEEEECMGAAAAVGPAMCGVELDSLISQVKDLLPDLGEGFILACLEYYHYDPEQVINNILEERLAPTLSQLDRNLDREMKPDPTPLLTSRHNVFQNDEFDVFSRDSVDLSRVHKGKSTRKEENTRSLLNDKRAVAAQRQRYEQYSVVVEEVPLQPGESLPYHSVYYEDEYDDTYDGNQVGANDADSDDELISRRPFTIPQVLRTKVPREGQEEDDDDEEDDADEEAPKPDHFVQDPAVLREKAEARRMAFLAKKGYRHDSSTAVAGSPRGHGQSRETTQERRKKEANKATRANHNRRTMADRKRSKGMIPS

ASCC2^1-434 [6] = molecular target: B3; test: ITC; iTC200; ASCC3^1-22 peptide (10-15 µM) in the sample cell, ASCC2^1-434 (200 µM or 400 µM) in the syringe; 20 mM HEPES-NaOH, pH 7.5, 100 mM NaCl; 25 °C; stoichiometry fixed to 1; details: both partners purified

Binder: B1
- Kd (ASCC2^1-434 [1]): 3.8 nM

Binder: B2
- Kd (ASCC2^1-434 [1]): 483 nM

Binder: B3
- fold reduced affinity compared to WT ASCC3^1-22 (ASCC3^1-22 peptide R5C): > 20 fold
- fold weaker interaction than with WT ASCC3^1-22 (ASCC3^1-22 peptide R5G): ~11 fold
- fold reduced affinity compared to WT ASCC3^1-22 (ASCC3^1-22 peptide R5H): > 20 fold
- fold weaker interaction than with WT ASCC3^1-22 (ASCC3^1-22 peptide R5L): ~8 fold

Binder: MALPCLTGALRSFSNVTKQDNY-NH2 [ASCC3^1-22 peptide R5C]
- Kd (ASCC2^1-434 [2]): 46500 nM

Binder: B4
- Kd (ASCC2^1-434 [1]): 47.7 nM

Binder: B5
- binding result [3]: binds

Binder: B6
- binding result [4]: binds

Binder: MALPGLTGALRSFSNVTKQDNY-NH2 [ASCC3^1-22 peptide R5G]
- Kd (ASCC2^1-434 [2]): 21600 nM

Binder: MALPLLTGALRSFSNVTKQDNY-NH2 [ASCC3^1-22 peptide R5L]
- Kd (ASCC2^1-434 [2]): 15400 nM

Binder: B7
- Kd [5]: 3.5 nM

Binder: B8
- Kd (ASCC2^1-434 [6]): 2000 nM

Binder: MALPHLTGALRSFSNVTKQDNY-NH2 [ASCC3^1-22 peptide R5H]
- Kd (ASCC2^1-434 [2]): 43800 nM

From publication PMC7608686, “The interaction of DNA repair factors ASCC2 and ASCC3 is affected by somatic cancer mutations” (Nature Communications, 2020)
